# Test results: the DeepSol protein solubility set
# Experiment: soluble on expression in E. coli; label from the status in PepcDB or PDB records
row,Sequence,soluble on expression in E. coli
1,MERVTVRMARSDRRTPWGFGVTEAPDGAVLIVNVIGGSLADRAGLRNGDVVDRLEDLDNLDINAVDRLLVTAHEKIELIVTRQPSGAATRIWRPEVTENTGPGQDQTPYRVNLQHSSDTRPPQGFNNSALPFETDQRVKHMQYNSPLGIYSDKSAAEQYVQQTQGLGDNSGARAAAQRQDEPAYLRSETLRLLKEQEHGSAGGAGTTLSNHPNPSGLPVCFMCTRPILGVMARAAGKNLHGDCLSCATCGNSLRNVGHHFIEDKFYCDIHGTQRKHGGRPGMDPNIFVKSSPTAAQPVHIQDSPRAAYHPQVNTARPVSVSPAPSAGSKTVTTHYHTPKTQGILSPGQRGVPTAAFGADLSKSVTYGGGVGPGGTHYDSNRLSPAPSQYSTQSRNQSQQHYQQHVVQAPPPVPSNPPPSNEQQSQSRVQNLPDSVRSAVSPRRSGKSPRQWPPPAMPTTNRYWQIDPADALKKEKVNYGEDLVALIKEVEQSKEKEPKVKKEPKKGTRGARRASNISKEQVQQAFEEQRKRTERKEIKKLEKEIKPKPELKVEVPVEPLVVPTSKPLEEPCPEALPPPKINDGIHWTVIHSPVLRSPSPAKVTSEAAIPESNGVVKPIPSYASQPIGISKTSTPQPFRPGSQVERPHYSSVGLKDVHAPVPLPRSPQHSPQPVQSYIVRSSDANVTTSTNLQTTVTRQYTENDNKSQFLQQPHPDTIDSSTSPIPTIRLNRHTKPEPSTPLSVPTVSINDIATSPIKITEPSRPWRASVSNSATSPIKIHESRVQPVDESRGLHRHEEKAQIETSTIKIHEPSSPPPSVHKFGAVNTRAAPAPVQFMQTPRIAVKIHEPTGPSPTPPSTPSHPIKRDPKHFKKVDFSKTSPTVIPEWKDSADIVDESDILTECSREDDSISFLKAATYDGDESEMIDNNIDNKSDITSTFDIEEEEVDVVQDRERIRVVGRKGGEGGEAEKQWRQRAMELLDDDAQTERDLRIVAALNERLQGLREMEDDDRVRAIECIARHQSELEQTQTQLSTLLESAIVYLQNLRPELELTEPIDNDAKSLETVKFEPTRAEQRVNEIRKKVLEDLEHLPILGDGMDSVPPPPPERKVFPFQSYQPIAPQFPVPAAESPVTQSLHDVLDEFYSLRKPTPTQNVAQSSDTTAEDSRNFLASRLGQVMIDENKKAGGSNGSSQHHNQQGSSYTKTSFERTTTETRPQQNTGAPRAGDFRGTGHLTTTTTTQQNGGRAPFCESCKQQIRGAFVLATGKSWCPEHFVCANSSCRRRLLECGFVEEDGQKFCESCFEQHIAPRCNKCSKPIISDCLNALQKKWHPTCFTCAHCQKPFGNSAFYLEQGLPYCEQDWNALFTTKCVSCRYPIEAGDRWVEALGNAFHSNCFTCARCNHNLEGESFFAKNGQPFCRLHA,not soluble
2,MESALQKAAGEGMDEFIQVFTDKYKEIIGGELTADTMPLLTGEQHSLLAYQIFRDEIMFGGFCQLIQNGYGGYIFDNPFAKVMRLWGAEEFSKLVYKAKKIYDANRKDLEKERTDDEFMAMYEQYEAFDDLEEAYLDMEEQVTTLVASYVDNHLELFAKIIK,not soluble
3,MESDPMFIGFGYDRHPLVEGRRLVLAGVEIDAPLGSLGHSDGDVLSHAIIDALLGAGCLGDIGTWFPETKEYKDANSLDLLKETVKILEERGFSVVNVDATVVASIVKLSPYREKIVENLKSALETSRVNVKFKSGNTLGFEGEERGISAYAVCLVEEKGCTKST,not soluble
4,MESEKKIAHEIGGVKNDALRFGLHGVKSNIIGSHPLESSYESEKKSKEALKRTVIAHAYGTALPLKMDMDRQILSRFQRPPGPIPSSMLGLEVYTGAVDDFGFEDYLNDPRDSETFKPVDFHHGMEVRLGISKGPIYPSFM,not soluble
5,MESFELEDLTLWLIRDADEAEMWIDRWAVSYPVVQMSEASANGSTEAWQSALQTAFERIQGRHIAVVAHGAGAAAFLAWLYRADILTQKKLAGIILVSPRPDIFPDDAEHTFQRVRCPCRAALVVSEHGGVPHGWAQKQADLWNARLLVSPHSGSLNGMLGGWQWGMKLMQEMLLA,not soluble
6,MESFQNLAKKPTLKKQIIEQAFDLKCENCGRKYDYYKFDDGSEFKHGCDCEMIEYAKQSTENYHKRNRRRKAERIFKQSIMNEDLTKATFDNYNPTNEQLVYAKNLCERYANNFTLDNKQSLLIQGSFGTGKSHLSMSIVKSVKAKGYTVLYMNVPQLISTIKNTYNNQTAMTEQELAQIISDVDLMVFDDYGINMNEFATSKMFELIESRIGKHNIFTTNLDEKEMTKNKDLQRIFSRIMSNTTLIKMDGQDYRTRGLKLLEHHHHHH,soluble
7,MESKHKLSINQWALEDRPREKMMEKGAAALSDAELLAILIGSGNTEESAVELMRRLLLSCDNNLNSLAKWEVCDYSRFKGMGPAKSITVMAALELGKRRKLQNIQERPRISCSRDIYDIFQPVMCDLEQEEFWVLLLNQATRLIDKVRISTGGIDGTYTDVRTILREALLQRATQIAVVHNHPSGNIQPSQPDRTLTEHIRRAADTMNIRLIDHVIVCEDKFYSFADEGLL,not soluble
8,MESKIPAIEKHRDAYVKIRIIESLDELALGLKLLKEGFSRNSANKVFQSWKAIISALTVINLEKMPRNEKEKEWYYKSGFLAPTTGLKGISQRLEELGYKVNSLTSVALELHRYAYNGLYKGASDYYEREEAINDIIYLSKEIMKVIKEFFKEYWDEEIEEHYNLAEKELMKLEHHHHHH,not soluble
9,MESNFIDWHPADIIAGLRKKGTSMAAESRRNGLSSSTLANALSRPWPKGEMIIAKALGTDPWVIWPSRYHDPQTHEFIDRTQLMRSYTKPKK,soluble
10,MESPIELAPDYYLENFFKLTHHAVTWYSDLLTEEEHAWLCSFDSLNKHAQCLLVRLYSRKGCWFRSDKLNYQEIPLIDAALAELGGQDFISLSPPLSHQEVAANLLTKPEISALYPELPKSLKKDALVERLSNTEFDRVEQLEFTIVRLNSAHMIDVLLTLFFANTHQDLSQFVLDDLGLHQFEQYQLSKVRRFFNSREQIDRLIELSQLANLYWQFDRKDKANLDLLIEAMPHPVHHPYVDRKREHMLNDIARDYERIDELETALSLFGQTQLTPSRERRARIYDKLNHDDLFSDIVTEMLHSPIDVSELEVAQKLEQRLKRKQGEKVPRVTKPTCMEYRVELDLSQQRVELASKAHFESLGWSVFYAENALLNALLGLTFWDAIFAPIEGAFINAYQHRPLDLYHSDFVAKRQALIDEAFAQLKLGNTQAILTKYDEKFGISNPFVQWSLIGKELLEQSLNTIPTRTLLELFKVQLSDLKLYRNGMPDLIAFRDNEFEWIEVKGPGDKLQDNQWRWIKEFSRLNVPFAVCYVTARKEDEKRVD,not soluble
11,MESTAPNAPTEEAPEPTPFVFEFKNNHIKLIELHVYTDSMEILLIGNDGNRYEVEIQEYPGEACIEQISLNRVLVQKKECTSMYPSAPIAIVTLYSILRQPGVKVDCFYYRILNQYFVRDKNNKTEHAKWDERSASLTKMLKAMMRALMKKLEVEVFKIVYNGKEEEVMCLLPYFEPGYLRRICLFNPLYVSPTVIDNIITTEQWKQAKELNTMTGEPVAFPVESHAHFESLRIRIPELKQIDVILLVLKYLNQKTPKDNEIGVQNVSELFDFMWGSMGIPHENDPETIRYTWKSGTYNLYAEVTKNGVRFTSETRQA,not soluble
12,MESTLSLQANLYPRLTPAGAFYAVSSDAPSAGKTLLHSLLKADADEMVSSEKLLTWADTADIDTALNLLYRLQKLEFLYGDENGHSDGINLSDEQLPLLMEQLSGSGKALLVDRNGLYLANANFHHEAAEELGLLAAEVAQMEKKYRLLIKNNLYINNNAWGVCDPSGQSELTFFPLYIGSTKFILVIGGIPDLGKEAFVTLVRILYRRYSNRV,not soluble
13,METEEEIQNVNVHHGHNIRRTRIEKNIKQDALAALVNMTQPNVSKYEKMRVIEDEMLNRFARALNVPVEYLKTLEEDAPSVVFENITNNVHDNKDSSMGSTGYNNDSITNTFNPIDKITELYERLLKEKDEKYAALEKRIQGLEQQNNNGK,not soluble
14,METIIHKIRLFDVAQADAFEFWVQNVDYATCPDLPSVVRFDVHRASLQANAPYHYVEVIKITDRAAFDADMETSTFAGLVQAFSRMAEVVEELAGEQLGSGYAAG,soluble
15,METKSLICTACPRGCRLSVKIENENISVSGNKCPKGLSYGKTEAVCPMRILTSTIASSVEGFPRLPVKTSVEVPLKNFSEYMHLIRKLKADSSKMPGDIIVKNFAESGADLIAAGGSLLEHHHHHH,soluble
16,METQENMIKTALQAAQKPFFEFAPNNTPLVFTPDQDGGWRYKSHPELMQNPYRKCGKFLMHDTASLIKFVQKHKQDGTQIYIDADFKSGRIDVTAVINGHTQQAPGWLDFYAVYTPQHTTSASNWLNNNAHRMNQMEFSHFLTNNARNIVSKNPGNENSVYPTAAEVLDFALNLEYTEKTTFKQGYREQDGRINFTFQSEDSGQTEKNLKMFERFGIEFTPHQGGASYFVEALLKFRIDKNSGALVLWYELQQIDAVIEQAAKDISEAVQKAFPEIDIYFGVIA,soluble
17,METSMITELKSVRDIWKKMPSERHARIFLEEMIWPSGRHCPHCGSLSSTPIRGRTARPGLYQCAERECCLQFTVTTKTPMHATKLDLRIWIAAIFLMLTSSKGISSVVMARILGVNQKTAWKLGHAIRELMDEREAVSARLAGVVEVDEAYVGGAPKFKKGVKNKRGRGTGKPMVLVAADRTGQAKATLIPNAKGATLGPIMKEWIDPSSALMTDSNTAYRKIGRSFASHHTVNHGKRQHSRPSKGAHINTVEAVNSQVQRALIGVYHRLGRQHLQRYLDEILWQWNHRQQEVKIRNRKTSSGTKTIATRVWKPIPVVDQMRGLLCCAVGRQLRRTPQWGLCWPIHLFEHKGTFA,soluble
18,METTQKDELSSFLSVLPPVDFCCVYGSTLHPNNQDKSKMVDYILGVSDPIKWHSANLKMNSDHYASWMVHLGGARLITNVADKVGVGVHFNPFVNWNDRKLKYGVVRMHDLVQDILDWKRFYLSGRLQKPVHMLVDNLDIEDVNSVNKRAAISAALLLLPSKFTEEDLYAKICSLSYMGDLRMFFAEDTNKVNKIVKGQFDLFQSMYKPFLEECETKNLLRFSSAEASHTKLVQDSSLSATRSLVSSLPASVRSQMGKSLGEKKFVSETGRVMGEVCISSREEAAKCMEKVMRRRVMVSSGRQAVSGFLAAGAINATMYLSQKMRKAWNSRA,soluble
19,MEVIREQEFVNQYHYDARNLEWEEENGTPKTNFEVTFQLANRDEAAKVTSIVAVLQFVIVRDEFVISGVISQMAHIQGRLINEPSEFSQDEVENLAAPLLEIVKRLTYEVTEIALDRPGVTLEFNS,soluble
20,MEVNKKQLADIFGASIRTIQNWQEQGMPVLRGGGKGNEVLYDSAAVIKWYAERDAEIENEKLRREVEE,soluble
21,MEVTDVRLRRVNTDGRMRAIASITLDHEFVVHDIRVIDGNNGLFVAMPSKRTPDGEFRDITHPINSSTRGKIQDAVLNEYHRLGDTEALEFEEAGAS,soluble
22,MEWYMGKYIRPLSDAVFTIASDDLWIESLAIQQLHTTANLPNMQRVVGMPDLHPGRGYPIGAAFFSVGRFYPARRRGNGAGNRNGPLL,not soluble
23,MEYGVLSWWDYGNWIVYVGKRPAVSNNFQTGVEDSANFLLTDSEEEAKTIVEKLKVKYVMTDTLMAEGKFSSITSLAGKEIGEYYEVETVKGDTGLRTVATPKQALLQTQVYKLHKLDGTSLGHFRLVHESAVNSTDDGNSKENTVKVFEYVKGATLEHHHHHH,soluble
24,MEYIYASLLLHSAKKEISEDALKNVLTAAGISVDEVRLKAVVAALKEVNIDEVLKNAAAMPVAVAAQPQATQAQPAAEEKKEEKKEEEKKGPSEEEIASGLASLFGLEHHHHHH,not soluble
25,MEYKSTRHAKYLCNYHFVWIPKYRRKVLTGEVAEYTKEVLRTIAEELGCEVLALEVMPDHIHLFVNCPPRYAPSYLANYFKGKSARLILKKFQELKKSTNGKLWTRSYFVSTSGNVSSETIKKYIEEQWAKENEED,soluble
